Data from US20240317834A1, “COMPOSITIONS AND METHODS FOR NEUROLOGICAL DISEASES” (CODA BIOTHERAPEUTICS, INC., priority 2020, published 2024).

System: Lenti-X 293T cells
Assay: YFP fluorescence quenching anion reporter plate reader assay of engineered receptors stimulated with acetylcholine or a non-native ligand
Type: cell-based
Details: for percent quench of YFP fluorescence, 30 nM TC-6683: TC-6683 30 nM; for percent quench of YFP fluorescence, 300 nM TC-6683: TC-6683 300 nM; for percent quench of YFP fluorescence, 3 uM TC-6683: TC-6683 3 uM; for percent quench of YFP fluorescence, 30 uM TC-6683: TC-6683 30 uM; for percent quench of YFP fluorescence, 100 uM TC-6683: TC-6683 100 uM; for percent quench of YFP fluorescence, 10 uM ach: acetylcholine 10 uM; for percent quench of YFP fluorescence, 100 uM ach: acetylcholine 100 uM; for percent quench of YFP fluorescence, 1 mM ach: acetylcholine 1 mM; for percent quench of YFP fluorescence, 3 mM ach: acetylcholine 3 mM
Source text: To screen these mutant LGICs for those having novel response profiles to ligands, an anion reporter assay was developed to assess the function of the LGICs in a high throughput format. In this assay, cells expressing a YFP reporter whose fluorescence is quenched in the presence of anion are transfected with DNA encoding the channel of interest. Upon exposure to ligand, channels that are activated will flux anion, resulting in a dose-dependent quench of the YFP that can be detected on a plate reader. The greater the quench signal (i.e., the more positive the value), the higher the ligand activity on the receptor is.
Lenti-X 293T cells (LX293T, Clontech) were maintained in DMEM containing 10% FBS and 1% penicillin/streptomycin (Invitrogen). […] Two days before assay, cells were split at a density of 20,000 cells/well in a 96-well tissue culture plate coated with poly-d lysine (Thermo Scientific). The next day, the cells were transiently transfected with 0.1 μg of DNA per well using standard Fugene protocol (Promega). On the day of assay, cells were washed 2 times in 1× extracellular solution (1×ECS: 140 mM NaCl, 5 mM KCl, 1 mM MgCl2, 2 mM CaCl2), 10 mM HEPES, 10 mM glucose, pH 7.2, mOsms 300). After the last wash, 100 μL of 1×ECS was added to the wells and the plate was incubated at 37° C. for 30 min. While incubating the plate, the drugs were diluted to a 2× concentration in 1×ECS-NaI (same components as 1×ECS except the 140 mM NaCl was replaced by 140 mM NaI). The plates were then read on a Flexstation3 (Molecular Devices). Each well, 8 wells at a time, of the plate is read for 2 min using a Flexstation3 (Molecular Devices) as follows: 1) a baseline YFP fluorescence is read for 17 sec, 2) 100 μL of ligand is added, and 3) the changes in YFP fluorescence are then measured every 1.3 sec for 1 minute and 43 seconds. The percent quench is calculated from the average fluorescence of the last 10 seconds of the read divided by the baseline average of the first 15 seconds prior to the ligand addition.
FIGS. 1A-1J provide heat maps of the percent quench of YFP fluorescence following stimulation by various doses of either acetylcholine or the non-native ligand as indicated in the Figures. CODA71 (SEQ ID NO: 33) was used as a control, and CODA75 (SEQ ID NO: 29, a non-responding chimeric engineered receptor) was used as the negative control. Quenching of the fluorescence signal, as indicated by blue shaded cells, indicate the level of engineered receptor activation by the non-native ligand at that concentration.

B1: CODA325: engineered chimeric LGIC receptor, L131G in SEQ ID NO: 33 (protein)
chain: MRCSPGGVWLALAASLLHVSLQGEFQRKLYKELVKNYNPLERPVANDSQPLTVYFSLSLLQIMDVDEKNQVLTTNIWLQMSWTDHYLQWNVSEYPGVKTVRFPDGQIWKPDILLYNSADERFDATFHTNVGVNSSGHCQYLPPGIFKSSCPMDLKNFPMDVQTCKLKFGSWSYGGWSLDLQMQEADISGYIPNGEWDLVGIPGKRSERFYECCKEPYPDVTFTVTMRRRMGYYLIQMYIPSLLIVILSWISFWINMDAAPARVGLGITTVLTMTTQSSGSRASLPKVSYVKAIDIWMAVCLLFVFSALLEYAAVNFVSRQHKELLRFRRKRRHHKSPMLNLFQEDEAGEGRFNFSAYGMGPACLQAKDGISVKGANNSNTTNPPPAPSKSPEEMRKLFIQRAKKIDKISRIGFPMAFLIFNMFYWIIYKIVRREDVHNQ
modifications: synthetic sequence of chimeric LGIC
With B1 the “YFP fluorescence quenching using CNL001” value (1 nM CNL001, first column) was 74.429%, the “YFP fluorescence quenching using CNL001” value (1 nM CNL001, second column) was 78.715% and the “YFP fluorescence quenching using TC-5619/Bradanicline” value (3 nM brd) was 68.45%. For the same molecule, the “YFP fluorescence quenching using Varenicline” value (3 nM var, first column) was −12.241, the “YFP fluorescence quenching using Varenicline” value (3 nM var, second column) was −9.415 and the “YFP fluorescence quenching using CNL001” value (10 nM CNL001, first column) was 79.033%. For the same molecule, the “YFP fluorescence quenching using CNL001” value (10 nM CNL001, second column) was 79.322%, the “YFP fluorescence quenching using TC-5619/Bradanicline” value (30 nM brd) was 76.95% and the “YFP fluorescence quenching using Facinicline” value (30 nM fac) was 75.75. The “YFP fluorescence quenching using Varenicline” value (30 nM var, first column) was 75.334, the “YFP fluorescence quenching using Varenicline” value (30 nM var, second column) was 72.278 and the “YFP fluorescence quenching using CNL001” value (50 nM CNL001, first column) was 79.966%. For the same molecule, the “YFP fluorescence quenching using CNL001” value (50 nM CNL001, second column) was 80.091%, the “YFP fluorescence quenching using ABT-126” value (50 nM abt) was −17.39% and the “YFP fluorescence quenching using CNL001” value (100 nM CNL001, first column) was 81%. The “YFP fluorescence quenching using CNL001” value (100 nM CNL001, second column) was 79.701%, the “YFP fluorescence quenching using CNL002” value (100 nM CNL002) was 45.62% and the “YFP fluorescence quenching using ABT-126” value (100 nM abt) was 6.89%. For the same molecule, the “YFP fluorescence quenching using AZD-0328” value (100 nM azd0328) was 79.75%, the “YFP fluorescence quenching using ABT-126” value (300 nM abt) was 38.65% and the “YFP fluorescence quenching using AZD-0328” value (300 nM azd0328) was 80.62%. The “YFP fluorescence quenching using TC-5619/Bradanicline” value (300 nM brd) was 77.1%, the “YFP fluorescence quenching using Facinicline” value (300 nM fac) was 78.01 and the “YFP fluorescence quenching using Varenicline” value (300 nM var, first column) was 78.305. For the same molecule, the “YFP fluorescence quenching using Varenicline” value (300 nM var, second column) was 77.83, the “YFP fluorescence quenching using Varenicline” value (500 nM var, first column) was 75.936 and the “YFP fluorescence quenching using Varenicline” value (500 nM var, second column) was 76.788. For the same molecule, the “YFP fluorescence quenching using CNL001” value (1 uM CNL001, first column) was 79.289%, the “YFP fluorescence quenching using CNL001” value (1 uM CNL001, second column) was 80.581% and the “YFP fluorescence quenching using CNL002” value (1 uM CNL002) was 74.72%. For the same molecule, the “YFP fluorescence quenching using ABT-126” value (1 uM abt) was 45.82%, the “YFP fluorescence quenching using TC-6987” value (1 uM tc6987) was 64.59 and the “YFP fluorescence quenching using Varenicline” value (1 uM var, first column) was 77.805. For the same molecule, the “YFP fluorescence quenching using Varenicline” value (1 uM var, second column) was 77.352, the “YFP fluorescence quenching using TC-6987” value (10 uM tc6987) was 76.28 and the “YFP fluorescence quenching using CNL002” value (30 uM CNL002) was 77.4%. The “YFP fluorescence quenching using AZD-0328” value (30 uM azd0328) was 80.19%, the “YFP fluorescence quenching using Facinicline” value (30 uM fac) was 76.61 and the “YFP fluorescence quenching using TC-6987” value (500 uM tc6987) was 70.95. For the same molecule, the “percent quench of YFP fluorescence, 30 nM TC-6683” value was −21.27%, the “percent quench of YFP fluorescence, 300 nM TC-6683” value was −18.33% and the “percent quench of YFP fluorescence, 3 uM TC-6683” value was −7.03%. The “percent quench of YFP fluorescence, 30 uM TC-6683” value was 56.84%, the “percent quench of YFP fluorescence, 100 uM TC-6683” value was 64.51% and the “percent quench of YFP fluorescence, 10 uM ach” value was 5.66%. The “percent quench of YFP fluorescence, 100 uM ach” value was 74.07%, the “percent quench of YFP fluorescence, 1 mM ach” value was 62.65% and the “percent quench of YFP fluorescence, 3 mM ach” value was 69.49%.

B2: CODA326: engineered chimeric LGIC receptor, L131A in SEQ ID NO: 33 (protein)
chain: MRCSPGGVWLALAASLLHVSLQGEFQRKLYKELVKNYNPLERPVANDSQPLTVYFSLSLLQIMDVDEKNQVLTTNIWLQMSWTDHYLQWNVSEYPGVKTVRFPDGQIWKPDILLYNSADERFDATFHTNVAVNSSGHCQYLPPGIFKSSCPMDLKNFPMDVQTCKLKFGSWSYGGWSLDLQMQEADISGYIPNGEWDLVGIPGKRSERFYECCKEPYPDVTFTVTMRRRMGYYLIQMYIPSLLIVILSWISFWINMDAAPARVGLGITTVLTMTTQSSGSRASLPKVSYVKAIDIWMAVCLLFVFSALLEYAAVNFVSRQHKELLRFRRKRRHHKSPMLNLFQEDEAGEGRFNFSAYGMGPACLQAKDGISVKGANNSNTTNPPPAPSKSPEEMRKLFIQRAKKIDKISRIGFPMAFLIFNMFYWIIYKIVRREDVHNQ
modifications: synthetic sequence of chimeric LGIC
For B2, the “YFP fluorescence quenching using CNL001” value (1 nM CNL001, first column) was 76.424%, the “YFP fluorescence quenching using CNL001” value (1 nM CNL001, second column) was 80.567% and the “YFP fluorescence quenching using TC-5619/Bradanicline” value (3 nM brd) was 72.24%. For the same molecule, the “YFP fluorescence quenching using Varenicline” value (3 nM var, first column) was −5.939, the “YFP fluorescence quenching using Varenicline” value (3 nM var, second column) was −2.294 and the “YFP fluorescence quenching using CNL001” value (10 nM CNL001, first column) was 80.284%. For the same molecule, the “YFP fluorescence quenching using CNL001” value (10 nM CNL001, second column) was 81.232%, the “YFP fluorescence quenching using TC-5619/Bradanicline” value (30 nM brd) was 77.4% and the “YFP fluorescence quenching using Facinicline” value (30 nM fac) was 69.94. The “YFP fluorescence quenching using Varenicline” value (30 nM var, first column) was 68.663, the “YFP fluorescence quenching using Varenicline” value (30 nM var, second column) was 70.718 and the “YFP fluorescence quenching using CNL001” value (50 nM CNL001, first column) was 81.575%. For the same molecule, the “YFP fluorescence quenching using CNL001” value (50 nM CNL001, second column) was 82.544%, the “YFP fluorescence quenching using ABT-126” value (50 nM abt) was −21.91% and the “YFP fluorescence quenching using CNL001” value (100 nM CNL001, first column) was 81%. The “YFP fluorescence quenching using CNL001” value (100 nM CNL001, second column) was 81.718%, the “YFP fluorescence quenching using CNL002” value (100 nM CNL002) was 27.88% and the “YFP fluorescence quenching using ABT-126” value (100 nM abt) was −0.5%. The “YFP fluorescence quenching using AZD-0328” value (100 nM azd0328) was 80.39%, the “YFP fluorescence quenching using ABT-126” value (300 nM abt) was 34.86% and the “YFP fluorescence quenching using AZD-0328” value (300 nM azd0328) was 82.07%. For the same molecule, the “YFP fluorescence quenching using TC-5619/Bradanicline” value (300 nM brd) was 78.02%, the “YFP fluorescence quenching using Facinicline” value (300 nM fac) was 80.07 and the “YFP fluorescence quenching using Varenicline” value (300 nM var, first column) was 79.88. The “YFP fluorescence quenching using Varenicline” value (300 nM var, second column) was 79.742, the “YFP fluorescence quenching using Varenicline” value (500 nM var, first column) was 79.311 and the “YFP fluorescence quenching using Varenicline” value (500 nM var, second column) was 80.029. The “YFP fluorescence quenching using CNL001” value (1 uM CNL001, first column) was 82.334%, the “YFP fluorescence quenching using CNL001” value (1 uM CNL001, second column) was 81.539% and the “YFP fluorescence quenching using CNL002” value (1 uM CNL002) was 73.79%. For the same molecule, the “YFP fluorescence quenching using ABT-126” value (1 uM abt) was 56.66%, the “YFP fluorescence quenching using TC-6987” value (1 uM tc6987) was 73.37 and the “YFP fluorescence quenching using Varenicline” value (1 uM var, first column) was 80.952. For the same molecule, the “YFP fluorescence quenching using Varenicline” value (1 uM var, second column) was 79.329, the “YFP fluorescence quenching using TC-6987” value (10 uM tc6987) was 78.18 and the “YFP fluorescence quenching using CNL002” value (30 uM CNL002) was 75.89%. The “YFP fluorescence quenching using AZD-0328” value (30 uM azd0328) was 82.23%, the “YFP fluorescence quenching using Facinicline” value (30 uM fac) was 78.32 and the “YFP fluorescence quenching using TC-6987” value (500 uM tc6987) was 75.42. The “percent quench of YFP fluorescence, 30 nM TC-6683” value was −16.28%, the “percent quench of YFP fluorescence, 300 nM TC-6683” value was −11.73% and the “percent quench of YFP fluorescence, 3 uM TC-6683” value was −2.38%. For the same molecule, the “percent quench of YFP fluorescence, 30 uM TC-6683” value was −9.77%, the “percent quench of YFP fluorescence, 100 uM TC-6683” value was 0.97% and the “percent quench of YFP fluorescence, 10 uM ach” value was 7.43%. For the same molecule, the “percent quench of YFP fluorescence, 100 uM ach” value was 73.57%, the “percent quench of YFP fluorescence, 1 mM ach” value was 71.8% and the “percent quench of YFP fluorescence, 3 mM ach” value was 74.49%.
